Source: publication PMC5624731 (2018)
Values belong to the binder of their own block, whether it stands above or below them.

Tests used:
Experiment in all cases: nESI-MS
Ferredoxin = Ferredoxin (Spinacia oleracea, UniProt P00221)
PCBP1 = PCBP1 (Homo sapiens, UniProt Q15365)
PCBP1 (apo) = PCBP1 (apo) (Homo sapiens, UniProt Q15365)
Sequence of PCBP1 (apo) (Q15365 whole entry): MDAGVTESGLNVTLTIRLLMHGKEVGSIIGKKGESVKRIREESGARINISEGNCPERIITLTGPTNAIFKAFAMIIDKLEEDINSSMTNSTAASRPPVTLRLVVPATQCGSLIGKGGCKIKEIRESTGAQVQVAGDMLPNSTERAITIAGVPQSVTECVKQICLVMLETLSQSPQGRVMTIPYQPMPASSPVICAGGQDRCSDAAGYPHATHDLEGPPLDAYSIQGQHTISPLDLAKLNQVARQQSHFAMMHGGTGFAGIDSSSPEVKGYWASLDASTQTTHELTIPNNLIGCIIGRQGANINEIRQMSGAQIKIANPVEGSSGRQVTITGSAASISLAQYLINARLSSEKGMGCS

Sequence of PCBP1 (Q15365 whole entry): as above
Sequence of Ferredoxin (P00221 51-147): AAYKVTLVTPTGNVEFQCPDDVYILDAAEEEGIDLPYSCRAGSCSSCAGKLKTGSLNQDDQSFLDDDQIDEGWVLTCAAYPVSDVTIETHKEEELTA

Kd (Ferredoxin): 16 µM
B1: Ferredoxin-NADP+ reductase (protein)
chain: QIASDVEAPPPAPAKVEKHSKKMEEGITVNKFKPKTPYVGRCLLNTKITGDDAPGETWHMVFSHEGEIPYREGQSVGVIPDGEDKNGKPHKLRLYSIASSALGDFGDAKSVSLCVKRLIYTNDAGETIKGVCSNFLCDLKPGAEVKLTGPVGKEMLMPKDPNATIIMLGTGTGIAPFRSFLWKMFFEKHDDYKFNGLAWLFLGVPTSSSLLYKEEFEKMKEKAPDNFRLDFAVSREQTNEKGEKMYIQTRMAQYAVELWEMLKKDNTYFYMCGLKGMEKGIDDIMVSLAAAEGIDWIEYKRQLKKAEQWNVEVY

Kd (PCBP1): 60 µM
B2: HDAC8 (Zn) (protein)
chain: MEEPEEPADSGQSLVPVYIYSPEYVSMCDSLAKIPKRASMVHSLIEAYALHKQMRIVKPKVASMEEMATFHTDAYLQHLQKVSQEGDDDHPDSIEYGLGYDCPATEGIFDYAAAIGGATITAAQCLIDGMCKVAINWSGGWHHAKKDEASGFCYLNDAVLGILRLRRKFERILYVDLDLHHGDGVEDAFSFTSKVMTVSLHKFSPGFFPGTGDVSDVGLGKGRYYSVNVPIQDGIQDEKYYQICESVLKEVYQAFNPKAVVLQLGADTIAGDPMCSFNMTPVGIGKCLKYILQWQLATLILGGGGYNLANTARCWTYLTGVILGKTLSSEIPDHEFFTAYGPDYVLEITPSCRPDRNEPHRIQQILNYIKGNLKHVV
modifications: Zn2+-bound HDAC8

Kd (PCBP1 (apo)): 68 µM
B3: HDAC8 (apo) (protein)
chain: B2 chain

Kd (PCBP1): 44 µM
B4: HDAC8 (Fe) (protein)
chain: B2 chain
modifications: Fe2+-bound HDAC8

Kd (PCBP1): 63 µM
B5: HDAC8 (protein)
chain: B2 chain
